From patent US20170267764A1 (INNATE PHARMA, published 2017)
Where a chain is given by its changes, count along the chain named.

T1: human MICA allele MICA*007 (human, UniProt Q29983 24-297)
T1 construct: Expressed on transfected C1R cells; also called MICA*07; C1R-MICA*007
T1 chain: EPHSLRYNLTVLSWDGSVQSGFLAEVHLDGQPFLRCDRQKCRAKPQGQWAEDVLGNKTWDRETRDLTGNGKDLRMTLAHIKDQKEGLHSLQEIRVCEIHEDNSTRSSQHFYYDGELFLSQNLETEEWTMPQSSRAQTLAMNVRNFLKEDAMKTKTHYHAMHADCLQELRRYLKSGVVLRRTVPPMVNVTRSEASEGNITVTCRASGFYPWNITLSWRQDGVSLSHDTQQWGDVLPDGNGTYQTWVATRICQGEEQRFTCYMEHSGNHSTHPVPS

T2: human MICA allele MICA*001 (human, UniProt Q29983 24-297)
T2 sequence: T1 chain with A24T, E125K

T3: human MICA allele MICA*008 (human, UniProt Q29983 24-297)
T3 chain: T1 chain with C36Y, M129V, K173E, G206S, W210R, T213I, S215T, Q251R

T4: human MICA allele MICA*004 (human, UniProt Q29983 24-297)
T4 construct: Expressed on transfected C1R cells; also called MICA*04; C1R-MICA*004
T4 chain: T1 chain with C36Y, L122V, M129V, K173E, G175S, T181R, G206S, W210R, S215T

B1: mAb4 (antibody, V domains shown)
VH: QVQLQESGPGLVKPSETLSLTCTVSGYSITSDYAWNWIRQPPGKGLEWMGFVSYSGTTKYNPSLKSRVTISRDTSKNQFSLKLSSVTAADTAVYYCARGYGFDYWGQGTTVTVSS
VL: EIVLTQSPATLSLSPGERATLSCSATSSISSIYFHWYQQKPGQAPRLLIYRTSNLASGIPARFSGSGSGTDYTLTISSLEPEDFAVYYCQQGTTIPFTFGQGTKLEIK
notes: Produced in CHO cells as human IgG1 with huCk constant domain
B2: mAb1 (antibody, V domains shown)
VH: B1 VH with M49I
VL: B1 VL
notes: Produced in CHO cells as human IgG1 with huCk constant domain; also called anti-MICA mAb1; anti-MICA antibody mAb1
B3: mAb2 (antibody, V domains shown)
VH: B1 VH with M49I
VL: B1 VL with D71S
notes: as for B1
B4: mAb3 (antibody, V domains shown)
VH: B1 VH with M49I
VL: B1 VL with F84V
notes: as for B1
B5: mAb5 (antibody, V domains shown)
VH: B1 VH
VL: B1 VL with D71S
notes: as for B1
B6: mAb6 (antibody, V domains shown)
VH: B1 VH
VL: B1 VL with F84V
notes: as for B1
B7: mAb7 (antibody, V domains shown)
VH: B1 VH with K76E
VL: B1 VL
notes: as for B1
B8: mAb8 (antibody, V domains shown)
VH: B1 VH with K76E
VL: B1 VL with D71S
notes: as for B1
B9: mAb9 (antibody, V domains shown)
VH: B1 VH with K76E
VL: B1 VL with F84V
notes: as for B1
B10: mAb10 (antibody, V domains shown)
VH: B1 VH with V68I, K76E
VL: B1 VL
notes: as for B1
B11: mAb11 (antibody, V domains shown)
VH: B1 VH with V68I, K76E
VL: B1 VL with D71S
notes: as for B1
B12: mAb12 (antibody, V domains shown)
VH: B1 VH with V68I, K76E
VL: B1 VL with F84V
notes: as for B1

Molecular target: T1, human MICA allele MICA*007
Assay: flow cytometry, C1R-MICA*007 transfectant cells
Experimental: (§1) The binding of the antibodies in Table 2 of Example 1 were tested for binding to MICA-expressing C1R transfectant cells (ATCC reference CRL-1993™) transfected with RSV.5neo vectors (GenBank (NCBI) under Accession number M83237), as described in Salih et al. (2003) Blood 102(4): […], referred to as C1R-MICA*001, C1R-MICA*004, C1R-MICA*007 and C1R-MICA*008. Binding was analyzed by flow cytometry.
(§2) Cells were harvested and stained in PBS 1×/BSA 0.2%/EDTA 2 mM buffer during 30 minutes at 4° C. using a dose-range of the anti-MICA mAbs. After two washes in staining buffer, cells were stained for 30 min at 4° C. with mouse anti-human IgG1-PE monoclonal antibodies (1/11). After two washes, stainings were acquired on a BD FACS Canto II and analyzed using the FlowJo software.
Binder B1 has an EC50 of 0.0875 µg/mL.
For B2, the EC50 was 0.033 µg/mL.
Work on B3 yielded an EC50 of 0.0502 µg/mL.
For B4, the EC50 was 0.0612 µg/mL.
In the case of B5, the EC50 is reported as 0.0493 µg/mL.
In the case of B6, the EC50 is reported as 0.0718 µg/mL.
With B7 the EC50 was 0.0668 µg/mL.
Binder B8 has an EC50 of 0.0462 µg/mL.
Binder B9 has an EC50 of 0.0519 µg/mL.
With B10 the EC50 was 0.0498 µg/mL.
For B11, the EC50 was 0.0513 µg/mL.
In the case of B12, the EC50 is reported as 0.086 µg/mL.

These binders were tested against T2, human MICA allele MICA*001 (assay: cell-based or functional assay).
B2 was tested, and the “EC50 (read off the curve), ADCC % specific lysis [panel C1R MICA*001]” value was ~0.003 µg/mL.

Molecular target: T3, human MICA allele MICA*008
Assay: cell-based or functional assay
With B2 the “EC50 (read off the curve), ADCC % specific lysis [panel C1R MICA*008]” value was ~0.0002 µg/mL.

These binders were tested against T2, human MICA allele MICA*001 (assay: flow cytometry, C1R-MICA*001 transfectant cells).
Experimental: as §1, §2
For B1, the EC50 was 0.316 µg/mL.
B2 was tested, and the EC50 was 0.184 µg/mL.
B3 showed an EC50 of 0.151 µg/mL.
B4 gave an EC50 of 0.265 µg/mL.
B5 was tested, and the EC50 was 0.318 µg/mL.
B6 gave an EC50 of 0.407 µg/mL.
B7 gave an EC50 of 0.288 µg/mL.
B8 gave an EC50 of 0.191 µg/mL.
B9 showed an EC50 of 0.318 µg/mL.
Work on B10 yielded an EC50 of 0.307 µg/mL.
B11 showed an EC50 of 0.32 µg/mL.
B12 gave an EC50 of 0.453 µg/mL.

Molecular target: T3, human MICA allele MICA*008
Assay: flow cytometry, C1R-MICA*008 transfectant cells
Experimental: as §1, §2
In the case of B1, the EC50 is reported as 0.0859 µg/mL.
B2 gave an EC50 of 0.0612 µg/mL.
In the case of B3, the EC50 is reported as 0.0699 µg/mL.
In the case of B4, the EC50 is reported as 0.0822 µg/mL.
Work on B5 yielded an EC50 of 0.0958 µg/mL.
Work on B6 yielded an EC50 of 0.0953 µg/mL.
With B7 the EC50 was 0.0871 µg/mL.
B8 was tested, and the EC50 was 0.0551 µg/mL.
B9 was tested, and the EC50 was 0.0515 µg/mL.
Work on B10 yielded an EC50 of 0.144 µg/mL.
B11 gave an EC50 of 0.0789 µg/mL.
B12 gave an EC50 of 0.0642 µg/mL.

These binders were tested against T2, human MICA allele MICA*001 (assay: flow cytometry, C1R-MICA*001 transfectant cells; reference: parental antibody).
Experimental: as §1, §2
For B2, the “fold improvement in affinity compared to the parental antibody” value was 2.4 fold.
B3 was tested, and the “fold improvement in affinity compared to the parental antibody” value was ~3 fold.

Molecular target: T4, human MICA allele MICA*004
Assay: flow cytometry, C1R-MICA*004 transfectant cells
Experimental: as §1, §2
B1 gave an EC50 of 0.063 µg/mL.
Binder B2 has an EC50 of 0.0417 µg/mL.
B3 gave an EC50 of 0.0381 µg/mL.
For B4, the EC50 was 0.0608 µg/mL.
B5 showed an EC50 of 0.0762 µg/mL.
With B6 the EC50 was 0.0838 µg/mL.
B7 showed an EC50 of 0.0616 µg/mL.
B8 was tested, and the EC50 was 0.0481 µg/mL.
Work on B9 yielded an EC50 of 0.0438 µg/mL.
In the case of B10, the EC50 is reported as 0.0631 µg/mL.
B11 gave an EC50 of 0.0614 µg/mL.
B12 showed an EC50 of 0.0672 µg/mL.
